Source: patent US12329823B2 (The Scripps Research Institute, priority 2021, dated 2025)

Tests used:
cynomolgous monkey GLP1R = cynomolgous monkey GLP1R (Macaca fascicularis, UniProt F8V479); assay: In vitro potency, cynomolgous monkey GLP1R activation (receptor-mediated cAMP synthesis); format: cell-based; settings: Table 12; read-out: In Vitro Potency GLP1R EC50, Cyno
Procedure: (§1) GLP-1R-CRE or HEK293-GIPR-CRE cells were seeded in 384-well plates at a density of 5000 cells per well and cultured for 18 h in DMEM with 10% FBS at 37° C. and 5% CO2. Cells were treated with peptides in a dose dependent manner for 24 h, and receptor activation was reported by luminescence intensities, using One-Glo (Promega, WI) luciferase reagent following manufacturer's instruction. The EC50 of each peptide was determined using GraphPad Prism 6 software (GraphPad, San Diego, CA). Results are depicted in FIGS. 6A-6B, FIGS. 7A-7B, FIGS. 8A-8B, FIGS. 9A-9B, and Tables 7-12. Measurements of peptide conjugate potency were expressed as half maximal effective concentration (EC50) values.

dog GIPR = molecular target: T1, dog GIPR (Canis lupus familiaris, UniProt A0A8I3MPG1); assay: In vitro potency, dog GIPR activation (receptor-mediated cAMP synthesis); format: cell-based; settings: Table 12; read-out: In Vitro Potency GIPR EC50, Dog
T1 sequence (A0A8I3MPG1 24-449): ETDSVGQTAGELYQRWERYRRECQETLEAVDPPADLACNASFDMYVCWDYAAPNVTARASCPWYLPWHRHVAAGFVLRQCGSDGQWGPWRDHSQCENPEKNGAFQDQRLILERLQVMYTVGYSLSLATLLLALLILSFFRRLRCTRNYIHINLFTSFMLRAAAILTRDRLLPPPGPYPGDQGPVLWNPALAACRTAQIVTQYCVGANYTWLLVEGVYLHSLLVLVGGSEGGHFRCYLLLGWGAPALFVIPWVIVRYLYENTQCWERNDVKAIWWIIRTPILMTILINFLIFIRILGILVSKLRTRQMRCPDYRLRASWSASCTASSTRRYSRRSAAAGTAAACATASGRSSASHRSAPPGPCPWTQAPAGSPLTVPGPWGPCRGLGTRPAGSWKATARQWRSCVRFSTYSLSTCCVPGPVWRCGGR
Procedure: as §1

mouse GIPR = molecular target: T2, mouse GIPR (Mus musculus, UniProt Q0P543); assay: In vitro potency, mouse GIPR activation (receptor-mediated cAMP synthesis); format: cell-based; settings: Table 12
T2 sequence (Q0P543 19-460): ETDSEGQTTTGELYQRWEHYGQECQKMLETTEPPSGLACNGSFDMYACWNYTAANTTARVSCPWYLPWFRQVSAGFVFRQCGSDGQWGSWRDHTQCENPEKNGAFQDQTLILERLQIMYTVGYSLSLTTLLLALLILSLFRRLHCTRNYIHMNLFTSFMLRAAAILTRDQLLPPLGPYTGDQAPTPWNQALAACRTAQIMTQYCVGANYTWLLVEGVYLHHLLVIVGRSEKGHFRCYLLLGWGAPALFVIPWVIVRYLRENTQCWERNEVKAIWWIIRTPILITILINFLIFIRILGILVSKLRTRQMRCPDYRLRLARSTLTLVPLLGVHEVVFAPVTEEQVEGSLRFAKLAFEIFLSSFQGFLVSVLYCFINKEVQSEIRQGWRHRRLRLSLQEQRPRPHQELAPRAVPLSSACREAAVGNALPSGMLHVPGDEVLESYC

in vivo = settings: dog

Chain of cynomolgous monkey GLP1R (F8V479 24-463): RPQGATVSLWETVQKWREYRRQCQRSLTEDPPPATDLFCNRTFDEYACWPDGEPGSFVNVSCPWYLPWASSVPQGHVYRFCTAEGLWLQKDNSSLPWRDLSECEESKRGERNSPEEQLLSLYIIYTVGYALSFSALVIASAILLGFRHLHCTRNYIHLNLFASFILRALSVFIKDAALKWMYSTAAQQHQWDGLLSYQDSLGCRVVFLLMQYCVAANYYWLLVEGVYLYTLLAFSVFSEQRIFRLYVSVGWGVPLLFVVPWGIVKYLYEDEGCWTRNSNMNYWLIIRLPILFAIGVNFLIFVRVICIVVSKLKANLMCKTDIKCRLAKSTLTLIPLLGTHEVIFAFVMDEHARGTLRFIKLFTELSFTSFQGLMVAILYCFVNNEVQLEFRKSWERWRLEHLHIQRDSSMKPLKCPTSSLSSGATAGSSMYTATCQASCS

Row | Compound | EC50 (cynomolgous monkey GLP1R) | EC50 (dog GIPR) | EC50 (mouse GIPR) | AUC(0-t) (in vivo; iv) | T last (in vivo; iv) | Vd (in vivo; iv) | clearance (in vivo; iv) | half-life (in vivo; iv) | other results
1 | CC[C@H](C)[C@H](NC(=O)[C@H](CC(C)C)NC(=O)[C@H](Cc1c[nH]c2ccccc12)NC(=O)[C@@H]1CSCC(=O)NCCN(C(=O)CCC(=O)NCCOCCOCCC(=O)NCCOCCOCCC(=O)NCCCC[C@H](NC(=O)CCCCCCCCCCCCCCCCCCC(=O)O)C(=O)O)CCNC(=O)CSC[C@H](NC(=O)[C@H](CCCCN)NC(=O)[C@H](CC(=O)O)NC(=O)[C@H](CC(C)C)NC(=O)[C@H](Cc2ccc(O)cc2)NC(=O)[C@@H](NC(=O)[C@H](CO)NC(=O)[C@H](Cc2ccc(O)cc2)NC(=O)[C@H](CC(=O)O)NC(=O)[C@H](CO)NC(=O)[C@@H](NC(=O)[C@H](Cc2ccccc2)NC(=O)[C@@H](NC(=O)CNC(=O)[C@H](CCC(=O)O)NC(=O)C(C)(C)NC(=O)[C@@H](N)Cc2ccc(O)cc2)[C@@H](C)O)[C@@H](C)O)[C@@H](C)CC)C(=O)N[C@@H](C)C(=O)N[C@@H](C)C(=O)NC(C)(C)C(=O)N[C@@H](CCC(=O)O)C(=O)N[C@@H](Cc2ccccc2)C(=O)N[C@@H](C(C)C)C(=O)N1)C(=O)N[C@@H](C)C(=O)NCC(=O)NCC(=O)N1CCC[C@H]1C(=O)N[C@@H](CO)C(=O)N[C@@H](CO)C(=O)NCC(=O)N[C@@H](C)C(=O)N1CCC[C@H]1C(=O)N1CCC[C@H]1C(=O)N1CCC[C@H]1C(=O)N[C@@H](CO)C(N)=O [mCMV268] | 0.22 nM | 0.42 nM | 0.26 nM | 59200 ng·h/mL | 168 h | 0.0957 L/kg | 1.09 mL/h/kg | 63.9 h | Cmax (in vivo; iv): 8500 ng/mL; Tmax (in vivo; iv): 0.693 h; AUC(0-t) (in vivo; po): 1700 ng·h/mL; Cl (in vivo; po): 1300 mL/h/kg; Cmax (in vivo; po): 31.4 ng/mL; T last (in vivo; po): 144 h; Tmax (in vivo; po): 1 h; bioavailability (in vivo; po): 0.27%, 0.27%,; half-life (in vivo; po): 77.8 h
2 | CC[C@H](C)[C@H](NC(=O)[C@H](CC(C)C)NC(=O)[C@H](Cc1c[nH]c2ccccc12)NC(=O)[C@@H]1CSCC(=O)NCCN(C(=O)CCC(=O)NCCOCCOCCC(=O)NCCOCCOCCC(=O)NCCCC[C@H](NC(=O)CCCCCCCCCCCCCCCCC(=O)O)C(=O)O)CCNC(=O)CSC[C@H](NC(=O)[C@H](CCCCN)NC(=O)[C@H](CC(=O)O)NC(=O)[C@H](CC(C)C)NC(=O)[C@H](Cc2ccc(O)cc2)NC(=O)[C@@H](NC(=O)[C@H](CO)NC(=O)[C@H](Cc2ccc(O)cc2)NC(=O)[C@H](CC(=O)O)NC(=O)[C@H](CO)NC(=O)[C@@H](NC(=O)[C@H](Cc2ccccc2)NC(=O)[C@@H](NC(=O)CNC(=O)[C@H](CCC(=O)O)NC(=O)C(C)(C)NC(=O)[C@@H](N)Cc2ccc(O)cc2)[C@@H](C)O)[C@@H](C)O)[C@@H](C)CC)C(=O)N[C@@H](C)C(=O)N[C@@H](C)C(=O)NC(C)(C)C(=O)N[C@@H](CCC(=O)O)C(=O)N[C@@H](Cc2ccccc2)C(=O)N[C@@H](C(C)C)C(=O)N1)C(=O)N[C@@H](C)C(=O)NCC(=O)NCC(=O)N1CCC[C@H]1C(=O)N[C@@H](CO)C(=O)N[C@@H](CO)C(=O)NCC(=O)N[C@@H](C)C(=O)N1CCC[C@H]1C(=O)N1CCC[C@H]1C(=O)N1CCC[C@H]1C(=O)N[C@@H](CO)C(N)=O [mCMZ371, YAibEGT-FTSDY-SIYLD-KXAAAib-EFVXW-LIAGG-PSSGA-PPPS-NH2 (where each X is C) (SEQ ID NO: 61)] | 0.11 nM | 0.47 nM | 0.27 nM | 25600 ng·h/mL | 240 h | 0.11 L/kg | 1.19 mL/h/kg | 71.9 h | t1/2 in dogs (in words) (in vivo): long t1/2; AUC(0-t) (in vivo; sc): 17600 ng·h/mL; Cmax (in vivo; sc): 150 ng/mL; T last (in vivo; sc): 240 h; Tmax (in vivo; sc): 24 h; half-life (in vivo; sc): 62.7 h; bioavailability (in vivo; sc, Bioavailability): 68.7%
